Test results taken from the supplement of paper PMC9112550, “Optimization of the antimicrobial peptide Bac7 by deep mutational scanning” (BMC Biology, 2022).

System: Escherichia coli TOP10
Test: shrunken log2 fold change of peptide-encoding DNA abundance (4.5 h post-induction vs induction); higher = less antimicrobial activity (less host growth inhibition)
Settings: time post-induction: 4.5 h; library: site-saturation at positions 5, 18, 19, 20
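Further: peptides expressed intracellularly from a pBAD plasmid library in pooled LB shake-flask culture, induced with 0.3% L-arabinose, DNA abundance read by NGS, three biological replicates, DESeq2 with apeglm shrinkage.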

Point of comparison: RRIRIRPPRLPRPRPRPGKIPRP, “shrunken log2 fold change” value -0.0443. Against it:
- RRIRIRPPRLPRPRPRPSLPPRP — lower, -0.491
- RRIRWRPPRLPRPRPRPEWIPRP — higher, 0.475
- RRIRYRPPRLPRPRPRPPCHPRP — lower, -0.285
- RRIRIRPPRLPRPRPRPWSRPRP — within 0.2 log units, -0.187
- RRIRSRPPRLPRPRPRPEVQPRP — within 0.2 log units, -0.0242
- RRIRDRPPRLPRPRPRPITKPRP — higher, 0.283
- RRIRMRPPRLPRPRPRPYARPRP — within 0.2 log units, -0.00176
- RRIRHRPPRLPRPRPRPTTYPRP — lower, -0.9
- RRIRSRPPRLPRPRPRPWYDPRP — lower, -0.511
- RRIRQRPPRLPRPRPRPMTVPRP — within 0.2 log units, -0.00149
- RRIRARPPRLPRPRPRPQERPRP — within 0.2 log units, 0.0703
- RRIRTRPPRLPRPRPRPSGKPRP — within 0.2 log units, -0.0608
- RRIRFRPPRLPRPRPRPMTLPRP — within 0.2 log units, -0.107
- RRIRRRPPRLPRPRPRPMNMPRP — higher, 0.922
- RRIRQRPPRLPRPRPRPPADPRP — higher, 0.362
- RRIRRRPPRLPRPRPRPYHNPRP — lower, -0.819
- RRIRHRPPRLPRPRPRPSQCPRP — lower, -0.325
- RRIRNRPPRLPRPRPRPGAIPRP — within 0.2 log units, 0.0755
- RRIRKRPPRLPRPRPRPHASPRP — within 0.2 log units, 0.073
- RRIRMRPPRLPRPRPRPGRIPRP — within 0.2 log units, 0.0372
- RRIRKRPPRLPRPRPRPYDTPRP — lower, -0.246
- RRIRDRPPRLPRPRPRPTFIPRP — within 0.2 log units, -0.13
- RRIRARPPRLPRPRPRPWKMPRP — within 0.2 log units, -0.235
- RRIRWRPPRLPRPRPRPTLHPRP — within 0.2 log units, 0.132
- RRIRIRPPRLPRPRPRPCGLPRP — within 0.2 log units, -0.0428
- RRIRSRPPRLPRPRPRPNCVPRP — within 0.2 log units, 0.0124
- RRIRSRPPRLPRPRPRPADIPRP — within 0.2 log units, 0.0495
- RRIRERPPRLPRPRPRPDESPRP — lower, -0.304
- RRIRVRPPRLPRPRPRPVQPPRP — within 0.2 log units, 0.114
- RRIRRRPPRLPRPRPRPLSSPRP — higher, 0.234
- RRIRDRPPRLPRPRPRPLFNPRP — lower, -0.375
- RRIRLRPPRLPRPRPRPTKRPRP — within 0.2 log units, 0.00619
- RRIRVRPPRLPRPRPRPWVTPRP — lower, -0.375
- RRIRKRPPRLPRPRPRPMTVPRP — within 0.2 log units, 0.0686
- RRIRPRPPRLPRPRPRPNKAPRP — within 0.2 log units, 0.0279
- RRIRCRPPRLPRPRPRPEPKPRP — within 0.2 log units, 0.104
- RRIRSRPPRLPRPRPRPWNKPRP — within 0.2 log units, -0.0158
- RRIRNRPPRLPRPRPRPAGQPRP — within 0.2 log units, 0.0891
- RRIRRRPPRLPRPRPRPSNNPRP — lower, -0.303
- RRIRFRPPRLPRPRPRPSCMPRP — lower, -0.831
- RRIRGRPPRLPRPRPRPFTVPRP — lower, -0.31
- RRIRRRPPRLPRPRPRPSHDPRP — within 0.2 log units, -0.00919
- RRIRDRPPRLPRPRPRPQGFPRP — within 0.2 log units, -0.00674
- RRIRTRPPRLPRPRPRPTANPRP — within 0.2 log units, 0.0721
- RRIRCRPPRLPRPRPRPHCMPRP — lower, -0.517
- RRIRLRPPRLPRPRPRPAEVPRP — within 0.2 log units, -0.193
- RRIRHRPPRLPRPRPRPWCPPRP — lower, -0.402
- RRIRIRPPRLPRPRPRPRDHPRP — within 0.2 log units, -0.0591
- RRIRARPPRLPRPRPRPQRAPRP — higher, 1.26
- RRIRMRPPRLPRPRPRPWECPRP — higher, 1.1
- RRIRVRPPRLPRPRPRPVFMPRP — within 0.2 log units, -0.113
- RRIRKRPPRLPRPRPRPKLCPRP — higher, 0.515
- RRIRIRPPRLPRPRPRPNIRPRP — lower, -1.14
- RRIRTRPPRLPRPRPRPPHQPRP — higher, 0.237
- RRIRKRPPRLPRPRPRPPDGPRP — higher, 0.992
- RRIRDRPPRLPRPRPRPHKEPRP — within 0.2 log units, -0.00521
- RRIRMRPPRLPRPRPRPIEEPRP — higher, 0.278
- RRIRNRPPRLPRPRPRPVIAPRP — lower, -0.25
- RRIRQRPPRLPRPRPRPFTVPRP — within 0.2 log units, -0.0315
- RRIRERPPRLPRPRPRPCMYPRP — within 0.2 log units, -0.201
- RRIRVRPPRLPRPRPRPGHIPRP — within 0.2 log units, -0.028
- RRIRCRPPRLPRPRPRPVEGPRP — within 0.2 log units, 0.0501
- RRIRKRPPRLPRPRPRPHLTPRP — within 0.2 log units, 0.055
- RRIRRRPPRLPRPRPRPCSMPRP — higher, 0.464
- RRIRERPPRLPRPRPRPCVCPRP — within 0.2 log units, -0.132
- RRIRWRPPRLPRPRPRPFLDPRP — within 0.2 log units, -0.233
- RRIRKRPPRLPRPRPRPWHRPRP — within 0.2 log units, -0.0754
- RRIRRRPPRLPRPRPRPWFNPRP — within 0.2 log units, -0.241
- RRIRNRPPRLPRPRPRPTGNPRP — within 0.2 log units, -0.104
- RRIRHRPPRLPRPRPRPPPMPRP — higher, 0.557
- RRIRRRPPRLPRPRPRPAMWPRP — higher, 0.451
- RRIRARPPRLPRPRPRPPPKPRP — higher, 1.29
- RRIRIRPPRLPRPRPRPMPNPRP — within 0.2 log units, -0.0781
- RRIRHRPPRLPRPRPRPMFGPRP — within 0.2 log units, -0.000925
